Measured values published in patent US20250289871A1 (AstraZeneca / MedImmune, published 2025).

B1: RQ40 (TM-YTE) (antibody, V domains shown)
VH: EVQLVESGAEVKKPGSSVKVSCKASGGTFSSYAINWVRQAPGQGLEWMGGIIPIFRTPHYAQKFQGRVTITADESTGTAYMELSSLRSEDTAVYYCASPSCGGDCPQYLKSSKLDWYFDLWGRGTLVTVSS
VL: VIWMTQSPGTLSLSPGERATLSCRASQSVSSTYLAWYQQKPGQAPRLLIYGASSRATGIPDRFSGSGSGTDFTLTISRLEPEDFAVYYCQHYGSSPLTFGQGTRLEIK
B2: RQ43 (TM-YTE) (antibody, V domains shown)
VH: EVQLLETGGGLVQPGRSLRLSCAASGFPFDDYAIHWVRLAPGKGLEWVSSISWDSGSIGYADSVKGRFTISRDNAKNSLYLQMNSLRAEDTALYYCAKGAFPGYSSGWYYGLDVWGQGATVTVSS
VL: QSVVTQPPSASGSLGQSVTISCTGTSSDVGGYNYVSWYQQHPGKAPKLMIFEVSKRPSGVPDRFSGSKSGNTASLTVSGLQAEDEADYYCSSYAGNKGVFGGGTKLTVL
B3: RQ33 (TM-YTE) (antibody, V domains shown)
VH: QVQLQESGPGLVKPSETLSLTCTVFGGSITSSNHYWVWIRQPPGKGLEWIGSMYYSGSTAYNPSLTNRVTISVDTSKNQFSLKLSSVTAADTAVYYCARQIGPKRPSQVADWFDPWGQGTLVTVSS
VL: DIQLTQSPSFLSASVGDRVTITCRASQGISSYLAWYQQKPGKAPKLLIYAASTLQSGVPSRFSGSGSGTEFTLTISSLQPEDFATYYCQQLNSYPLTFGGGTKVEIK

target: SARS-CoV-2 spike RBD (residues 334-526), AviTag and 8×HisTag (SARS-CoV-2, UniProt P0DTC2 334-526)

| Binder | Kd |
| --- | --- |
| B1 | < 0.001 nM |
| B2 | < 0.001 nM |
| B3 | 3.65 nM |
